Changes are numbered by the printed parent chain. In names and notes the source's numbering stands. Several values for one entry are separate records, joined by “and”; a condition that tells them apart may be missing. Identical values can stand only once.
B1: Wild-type TWINKLE lacking the mitochondrial targeting sequence (residues 1-42) (enzyme, human, UniProt Q96RR1 43-684, looked up)
chain: ETLQALDMPVLPVTATEIRQYLRGHGIPFQDGHSCLRALSPFAESSQLKGQTGVTTSFSLFIDKTTGHFLCMTSLAEGSWEDFQASVEGRGDGAREGFLLSKAPEFEDSEEVRRIWNRAIPLWELPDQEEVQLADTMFGLTKVTDDTLKRFSVRYLRPARSLVFPWFSPGGSGLRGLKLLEAKCQGDGVSYEETTIPRPSAYHNLFGLPLISRRDAEVVLTSRELDSLALNQSTGLPTLTLPRGTTCLPPALLPYLEQFRRIVFWLGDDLRSWEAAKLFARKLNPKRCFLVRPGDQQPRPLEALNGGFNLSRILRTALPAWHKSIVSFRQLREEVLGELSNVEQAAGLRWSRFPDLNRILKGHRKGELTVFTGPTGSGKTTFISEYALDLCSQGVNTLWGSFEISNVRLARVMLTQFAEGRLEDQLDKYDHWADRFEDLPLYFMTFHGQQSIRTVIDTMQHAVYVYDICHVIIDNLQFMMGHEQLSTDRIAAQDYIIGVFRKFATDNNCHVTLVIHPRKEDDDKELQTASIFGSAKASQEADNVLILQDRKLVTGPGKRYLQVSKNRFDGDVGVFPLEFNKNSLTFSIPPKNKARLKKIKDDTGPVAKKPSSGKKGATTQNSEICSGQAPTPDQPDTSKRSK
B2: L381P TWINKLE (enzyme, human, UniProt Q96RR1 43-684, looked up)
chain: B1 chain with L339P
B3: R334Q TWINKLE (enzyme, human, UniProt Q96RR1 43-684, looked up)
chain: B1 chain with R292Q
B4: S369P TWINKLE (enzyme, human, UniProt Q96RR1 43-684, looked up)
chain: B1 chain with S327P
B5: P335L TWINKLE (enzyme, human, UniProt Q96RR1 43-684, looked up)
chain: B1 chain with P293L
B6: W315L TWINKLE (enzyme, human, UniProt Q96RR1 43-684, looked up)
chain: B1 chain with W273L

Target: the molecule itself
Assay: negative-stain single-particle electron microscopy
B1 was tested, and the “stoichiometry N” value was 6 and 7. B2 was tested, and the “stoichiometry N” value was 6 and 7 and 5. For B3, the “stoichiometry N” value was 7 and 6. For B4, the “stoichiometry N” value was 6 and 7. For B5, the “stoichiometry N” value was 6 and 7 and 8 and 9. B6 was tested, and the “stoichiometry N” value was 7.

Target: the molecule itself
Assay: negative-stain single-particle electron microscopy
Remark: another data set of the same source
In the case of B1, the “oligomeric state (%), heptamer” value is reported as 41.1% and the “oligomeric state (%), hexamer” value is reported as 58.9%. In the case of B2, the “oligomeric state (%), broken ring” value is reported as 26.9%, the “oligomeric state (%), heptamer” value is reported as 28.6% and the “oligomeric state (%), hexamer” value is reported as 33%. B3 was tested, and the “oligomeric state (%), broken ring” value was 8.3%, the “oligomeric state (%), heptamer” value was 55.1% and the “oligomeric state (%), hexamer” value was 36.6%. With B4 the “oligomeric state (%), broken ring” value was 45.2%, the “oligomeric state (%), heptamer” value was 41.6% and the “oligomeric state (%), hexamer” value was 13.2%. B5 was tested, and the “oligomeric state (%), broken ring” value was 6.4%, the “oligomeric state (%), heptamer” value was 72.3% and the “oligomeric state (%), hexamer” value was 4.7%. In the case of B6, the “oligomeric state (%), broken ring” value is reported as 12.9% and the “oligomeric state (%), heptamer” value is reported as 87.1%.

— article PMC6423418 (Human Molecular Genetics, 2018)
